According to PMC9482650, “Quantitative fragmentomics allow affinity mapping of interactomes” (Nature Communications, 2022):

Key:
Assay in all cases: holdup assay
Design in all cases: key: below the threshold = too weak to quantify, mostly under pKd 3.1 to 4
Conditions in all cases: plain residues with an end cap or a label only (N-terminal biotin on a linker: ado-ado)
GORASP1, Q9BQQ3 = molecular target: GORASP1, Q9BQQ3
GRIP1_5, Q9Y3R0 = molecular target: T1, GRIP1_5, Q9Y3R0
T1 sequence (Q9Y3R0 568-668, limits assumed, looked up): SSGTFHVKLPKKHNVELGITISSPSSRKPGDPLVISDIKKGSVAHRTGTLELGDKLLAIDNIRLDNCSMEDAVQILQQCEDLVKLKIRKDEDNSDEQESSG

GRIP1_3, Q9Y3R0 = molecular target: T2, GRIP1_3, Q9Y3R0
T2 sequence (Q9Y3R0 247-346, limits assumed, looked up): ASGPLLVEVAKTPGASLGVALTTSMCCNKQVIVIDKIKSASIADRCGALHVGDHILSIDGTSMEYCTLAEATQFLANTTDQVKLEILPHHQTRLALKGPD

DLG4_3, P78352 = molecular target: DLG4_3, P78352
SCRIB_1, Q14160 = molecular target: SCRIB_1, Q14160
NHERF4_2, Q86UT5 = molecular target: NHERF4_2, Q86UT5
GRIP1_2, Q9Y3R0 = molecular target: T3, GRIP1_2, Q9Y3R0
T3 sequence (Q9Y3R0 145-248, limits assumed, looked up): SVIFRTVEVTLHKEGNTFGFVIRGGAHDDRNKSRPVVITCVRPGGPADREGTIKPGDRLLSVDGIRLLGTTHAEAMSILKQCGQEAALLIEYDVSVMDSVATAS

LIN7A, O14910 = molecular target: T4, LIN7A, O14910
T4 sequence (O14910 103-200, limits assumed, looked up): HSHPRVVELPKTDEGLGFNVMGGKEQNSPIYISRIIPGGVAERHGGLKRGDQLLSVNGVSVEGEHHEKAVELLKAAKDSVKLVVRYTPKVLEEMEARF

NHERF4_4, Q86UT5 = molecular target: NHERF4_4, Q86UT5
MAGI1_1, Q96QZ7 = molecular target: MAGI1_1, Q96QZ7
TJP2_1, Q9UDY2 = molecular target: TJP2_1, Q9UDY2
FRMPD1, Q5SYB0 = molecular target: T5, FRMPD1, Q5SYB0
T5 sequence (Q5SYB0 52-145, limits assumed, looked up): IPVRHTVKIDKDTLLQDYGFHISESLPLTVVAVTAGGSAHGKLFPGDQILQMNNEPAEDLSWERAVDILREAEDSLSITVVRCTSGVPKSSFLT

HTRA1, Q92743 = molecular target: HTRA1, Q92743
PDZRN4_1, Q6ZMN7 = molecular target: PDZRN4_1, Q6ZMN7
GOPC, Q9HD26 = molecular target: GOPC, Q9HD26
LNX1_1, Q8TBB1 = molecular target: LNX1_1, Q8TBB1
Inadl_10, Q8NI35 = molecular target: Inadl_10, Q8NI35
DLG5_1, Q8TDM6 = molecular target: DLG5_1, Q8TDM6
RHPN1, Q8TCX5 = molecular target: T6, RHPN1, Q8TCX5
T6 sequence (Q8TCX5 508-602, limits assumed, looked up): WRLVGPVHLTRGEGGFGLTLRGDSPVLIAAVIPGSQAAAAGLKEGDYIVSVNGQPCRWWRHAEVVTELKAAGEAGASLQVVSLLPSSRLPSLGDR

MAST2, Q6P0Q8 = molecular target: MAST2, Q6P0Q8
TJP3_3, O95049 = molecular target: T7, TJP3_3, O95049
T7 sequence (O95049 375-456, limits assumed, looked up): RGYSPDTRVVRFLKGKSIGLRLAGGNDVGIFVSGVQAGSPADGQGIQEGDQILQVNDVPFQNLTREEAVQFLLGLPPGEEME

RADIL, Q96JH8 = molecular target: T8, RADIL, Q96JH8
T8 sequence (Q96JH8 971-1071, limits assumed, looked up): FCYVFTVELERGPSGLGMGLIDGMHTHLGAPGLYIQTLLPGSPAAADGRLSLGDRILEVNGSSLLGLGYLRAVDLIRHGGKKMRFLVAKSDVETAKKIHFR

RAPGEF6, Q8TEU7 = molecular target: T9, RAPGEF6, Q8TEU7
T9 sequence (Q8TEU7 525-625, limits assumed, looked up): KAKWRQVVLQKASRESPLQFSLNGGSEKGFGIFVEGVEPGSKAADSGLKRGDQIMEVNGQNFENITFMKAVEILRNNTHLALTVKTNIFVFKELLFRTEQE

GORASP2, Q9H8Y8 = molecular target: GORASP2, Q9H8Y8
PDZRN3_1, Q9UPQ7 = molecular target: T10, PDZRN3_1, Q9UPQ7
T10 sequence (Q9UPQ7 244-349, limits assumed, looked up): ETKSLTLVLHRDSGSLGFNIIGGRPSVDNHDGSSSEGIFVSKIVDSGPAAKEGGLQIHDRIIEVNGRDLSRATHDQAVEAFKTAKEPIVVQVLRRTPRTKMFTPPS

DLG1_1, Q12959 = molecular target: DLG1_1, Q12959
LNX1_3, Q8TBB1 = molecular target: LNX1_3, Q8TBB1
PDLIM1, O00151 = molecular target: PDLIM1, O00151
PDLIM1, O00151, sequence (O00151 1-87): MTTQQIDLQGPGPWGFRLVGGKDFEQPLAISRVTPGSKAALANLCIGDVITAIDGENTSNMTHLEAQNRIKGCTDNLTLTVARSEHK

SCRIB_1, Q14160, sequence (Q14160 718-814): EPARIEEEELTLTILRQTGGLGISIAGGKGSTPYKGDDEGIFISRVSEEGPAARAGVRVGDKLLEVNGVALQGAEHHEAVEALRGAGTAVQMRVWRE
LNX1_1, Q8TBB1, sequence (Q8TBB1 261-371): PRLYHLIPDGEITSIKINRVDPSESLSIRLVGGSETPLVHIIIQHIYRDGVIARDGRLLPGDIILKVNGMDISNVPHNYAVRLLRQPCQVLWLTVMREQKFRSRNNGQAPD
NHERF4_2, Q86UT5, sequence (Q86UT5 220-308): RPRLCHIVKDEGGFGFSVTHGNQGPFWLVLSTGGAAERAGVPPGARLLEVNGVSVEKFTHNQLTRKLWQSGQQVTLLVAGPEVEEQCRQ
HTRA1, Q92743, sequence (Q92743 360-477): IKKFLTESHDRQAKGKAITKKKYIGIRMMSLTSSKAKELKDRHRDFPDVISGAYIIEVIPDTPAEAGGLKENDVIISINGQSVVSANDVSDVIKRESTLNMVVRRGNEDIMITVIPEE
Inadl_10, Q8NI35, sequence (Q8NI35 1673-1763): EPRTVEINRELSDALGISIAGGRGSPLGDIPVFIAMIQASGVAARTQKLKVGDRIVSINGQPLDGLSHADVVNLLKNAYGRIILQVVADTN
PDZRN4_1, Q6ZMN7, sequence (Q6ZMN7 213-318): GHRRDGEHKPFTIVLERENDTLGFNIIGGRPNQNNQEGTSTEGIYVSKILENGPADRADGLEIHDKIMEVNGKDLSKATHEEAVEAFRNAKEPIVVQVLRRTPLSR
TJP2_1, Q9UDY2, sequence (Q9UDY2 24-128): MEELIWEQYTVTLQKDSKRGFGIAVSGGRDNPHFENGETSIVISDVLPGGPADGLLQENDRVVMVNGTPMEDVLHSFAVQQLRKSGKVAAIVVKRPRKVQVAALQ
MAST2, Q6P0Q8, sequence (Q6P0Q8 1099-1202): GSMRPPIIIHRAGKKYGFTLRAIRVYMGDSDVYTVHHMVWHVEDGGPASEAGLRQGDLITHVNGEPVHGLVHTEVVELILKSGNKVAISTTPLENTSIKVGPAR
DLG4_3, P78352, sequence (P78352 306-403): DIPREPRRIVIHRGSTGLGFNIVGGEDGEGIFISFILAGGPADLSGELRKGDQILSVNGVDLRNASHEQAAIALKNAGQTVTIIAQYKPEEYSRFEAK
LNX1_3, Q8TBB1, sequence (Q8TBB1 500-596): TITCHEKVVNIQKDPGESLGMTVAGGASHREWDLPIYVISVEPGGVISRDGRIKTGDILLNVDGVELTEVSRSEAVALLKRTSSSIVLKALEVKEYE
NHERF4_4, Q86UT5, sequence (Q86UT5 464-550): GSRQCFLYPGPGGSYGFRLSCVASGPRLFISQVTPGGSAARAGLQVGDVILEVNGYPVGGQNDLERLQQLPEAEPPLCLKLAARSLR
DLG5_1, Q8TDM6, sequence (Q8TDM6 617-713): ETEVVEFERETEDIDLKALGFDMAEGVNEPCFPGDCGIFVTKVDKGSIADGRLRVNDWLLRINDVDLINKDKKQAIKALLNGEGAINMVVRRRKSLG
GORASP1, Q9BQQ3, sequence (Q9BQQ3 1-208): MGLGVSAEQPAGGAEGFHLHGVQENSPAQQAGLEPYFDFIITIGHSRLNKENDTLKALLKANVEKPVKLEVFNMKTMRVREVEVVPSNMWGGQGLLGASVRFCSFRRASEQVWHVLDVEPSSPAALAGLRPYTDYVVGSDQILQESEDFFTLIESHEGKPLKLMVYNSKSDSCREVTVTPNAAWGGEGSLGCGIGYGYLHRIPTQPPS
MAGI1_1, Q96QZ7, sequence (Q96QZ7 1-106): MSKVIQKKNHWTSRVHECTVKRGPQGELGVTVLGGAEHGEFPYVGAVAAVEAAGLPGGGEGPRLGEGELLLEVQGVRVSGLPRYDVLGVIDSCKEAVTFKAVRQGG

DFKHTKSFII [JAM2, P57087]
pKd (GORASP1, Q9BQQ3): 5.07
pKd (GRIP1_5, Q9Y3R0): below the threshold
pKd (GRIP1_3, Q9Y3R0): below the threshold
pKd (DLG4_3, P78352): below the threshold
pKd (SCRIB_1, Q14160): below the threshold
pKd (NHERF4_2, Q86UT5): below the threshold
pKd (GRIP1_2, Q9Y3R0): below the threshold
pKd (LIN7A, O14910): below the threshold
pKd (NHERF4_4, Q86UT5): below the threshold
pKd (MAGI1_1, Q96QZ7): below the threshold
pKd (TJP2_1, Q9UDY2): below the threshold
pKd (FRMPD1, Q5SYB0): below the threshold
pKd (HTRA1, Q92743): 4.97
pKd (PDZRN4_1, Q6ZMN7): below the threshold
pKd (GOPC, Q9HD26): below the threshold
pKd (LNX1_1, Q8TBB1): below the threshold
pKd (Inadl_10, Q8NI35): below the threshold
pKd (DLG5_1, Q8TDM6): below the threshold
pKd (RHPN1, Q8TCX5): below the threshold
pKd (MAST2, Q6P0Q8): below the threshold
pKd (TJP3_3, O95049): below the threshold
pKd (RADIL, Q96JH8): 4.21
pKd (RAPGEF6, Q8TEU7): below the threshold
pKd (GORASP2, Q9H8Y8): 5.6
pKd (PDZRN3_1, Q9UPQ7): below the threshold
pKd (DLG1_1, Q12959): below the threshold
pKd (LNX1_3, Q8TBB1): below the threshold
pKd (PDLIM1, O00151): below the threshold

EFKQTSSFLV [JAM1, Q9Y624]
pKd (GORASP1, Q9BQQ3): 4.37
pKd (GRIP1_5, Q9Y3R0): below the threshold
pKd (GRIP1_3, Q9Y3R0): below the threshold
pKd (DLG4_3, P78352): below the threshold
pKd (SCRIB_1, Q14160): below the threshold
pKd (NHERF4_2, Q86UT5): below the threshold
pKd (GRIP1_2, Q9Y3R0): below the threshold
pKd (LIN7A, O14910): below the threshold
pKd (NHERF4_4, Q86UT5): below the threshold
pKd (MAGI1_1, Q96QZ7): 3.49
pKd (TJP2_1, Q9UDY2): below the threshold
pKd (FRMPD1, Q5SYB0): below the threshold
pKd (HTRA1, Q92743): 5.15
pKd (PDZRN4_1, Q6ZMN7): below the threshold
pKd (GOPC, Q9HD26): below the threshold
pKd (LNX1_1, Q8TBB1): 3.6
pKd (Inadl_10, Q8NI35): below the threshold
pKd (DLG5_1, Q8TDM6): below the threshold
pKd (RHPN1, Q8TCX5): below the threshold
pKd (MAST2, Q6P0Q8): below the threshold
pKd (TJP3_3, O95049): below the threshold
pKd (RADIL, Q96JH8): 4.62
pKd (RAPGEF6, Q8TEU7): below the threshold
pKd (GORASP2, Q9H8Y8): 4.83
pKd (PDZRN3_1, Q9UPQ7): below the threshold
pKd (DLG1_1, Q12959): below the threshold
pKd (LNX1_3, Q8TBB1): below the threshold
pKd (PDLIM1, O00151): below the threshold

SQPLLVHDDV [KIT, P10721]
pKd (GORASP1, Q9BQQ3): below the threshold
pKd (GRIP1_5, Q9Y3R0): below the threshold
pKd (GRIP1_3, Q9Y3R0): below the threshold
pKd (DLG4_3, P78352): below the threshold
pKd (SCRIB_1, Q14160): below the threshold
pKd (NHERF4_2, Q86UT5): below the threshold
pKd (GRIP1_2, Q9Y3R0): below the threshold
pKd (LIN7A, O14910): below the threshold
pKd (NHERF4_4, Q86UT5): below the threshold
pKd (MAGI1_1, Q96QZ7): below the threshold
pKd (TJP2_1, Q9UDY2): below the threshold
pKd (FRMPD1, Q5SYB0): below the threshold
pKd (HTRA1, Q92743): below the threshold
pKd (PDZRN4_1, Q6ZMN7): below the threshold
pKd (GOPC, Q9HD26): below the threshold
pKd (LNX1_1, Q8TBB1): below the threshold
pKd (Inadl_10, Q8NI35): below the threshold
pKd (DLG5_1, Q8TDM6): below the threshold
pKd (RHPN1, Q8TCX5): below the threshold
pKd (MAST2, Q6P0Q8): below the threshold
pKd (TJP3_3, O95049): below the threshold
pKd (RADIL, Q96JH8): below the threshold
pKd (RAPGEF6, Q8TEU7): below the threshold
pKd (GORASP2, Q9H8Y8): below the threshold
pKd (PDZRN3_1, Q9UPQ7): below the threshold
pKd (DLG1_1, Q12959): below the threshold
pKd (LNX1_3, Q8TBB1): below the threshold
pKd (PDLIM1, O00151): below the threshold
